Earlier results in publication PMC6018615.

Biological target: TNPO1 (Homo sapiens) (UniProt Q92973)
Chain of UniProt Q92973 (Q92973 whole entry): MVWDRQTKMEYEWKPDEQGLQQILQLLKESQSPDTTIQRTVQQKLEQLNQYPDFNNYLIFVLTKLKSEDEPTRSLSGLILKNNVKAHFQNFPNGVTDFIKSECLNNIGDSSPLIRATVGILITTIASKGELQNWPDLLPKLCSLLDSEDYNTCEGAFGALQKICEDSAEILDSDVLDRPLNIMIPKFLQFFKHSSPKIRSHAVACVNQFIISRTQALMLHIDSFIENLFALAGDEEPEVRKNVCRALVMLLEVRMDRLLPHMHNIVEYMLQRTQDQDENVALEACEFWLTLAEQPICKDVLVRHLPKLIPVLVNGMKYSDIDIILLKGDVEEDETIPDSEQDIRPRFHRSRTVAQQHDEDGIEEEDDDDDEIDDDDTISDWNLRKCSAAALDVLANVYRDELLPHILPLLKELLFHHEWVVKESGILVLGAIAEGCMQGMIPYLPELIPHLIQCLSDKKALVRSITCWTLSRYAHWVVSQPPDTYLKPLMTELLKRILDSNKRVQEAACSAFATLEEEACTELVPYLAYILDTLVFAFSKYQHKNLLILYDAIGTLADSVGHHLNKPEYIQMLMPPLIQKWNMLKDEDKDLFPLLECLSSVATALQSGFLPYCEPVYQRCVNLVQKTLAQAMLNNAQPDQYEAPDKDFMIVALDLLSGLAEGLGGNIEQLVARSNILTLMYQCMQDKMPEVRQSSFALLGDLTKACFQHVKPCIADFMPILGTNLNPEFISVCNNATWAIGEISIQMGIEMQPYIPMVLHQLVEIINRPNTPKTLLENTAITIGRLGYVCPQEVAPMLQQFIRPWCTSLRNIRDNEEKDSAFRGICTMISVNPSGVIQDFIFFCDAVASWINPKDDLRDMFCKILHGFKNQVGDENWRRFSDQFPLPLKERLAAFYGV

For FUS (from UniProt P35637), the Kd is listed as 9.5 nM.
